From patent EP4574844A1 (Numab Therapeutics AG, dated 2025)
Read-outs that look alike come from different tables or passages of the source.

T1: Fc-tagged human PDL2 (human, UniProt Q9BQ51 20-220, limits assumed)
T1 sequence (looked up): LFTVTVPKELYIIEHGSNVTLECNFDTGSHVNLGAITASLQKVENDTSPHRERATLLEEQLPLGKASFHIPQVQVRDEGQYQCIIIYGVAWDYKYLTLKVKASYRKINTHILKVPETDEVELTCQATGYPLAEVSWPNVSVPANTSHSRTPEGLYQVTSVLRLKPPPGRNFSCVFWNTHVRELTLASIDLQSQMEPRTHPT

B1: PRO5053 (antibody)
chain 1: DVQMTQSPSSLSASVGDRVTITCQASQSISSWVSWYQQKPGKPPKLLIYRGGYLESGVPSRFSASGSGTDFTLTISSLQPEDFATYYCQSTDSSTYGGAFGCGTKVTVLGGGGGSGGGGSGGGGSGGGGSQQVVESGGGLVQPGGSLRLSCAVSGIDLNSYAMTWVRQAPGKCLEWIGYIGSASSTYYASWASGRFTISKDNSKNTVYLQMNSLRAEDSAVYFCARGSTYINIWGQGTLVKVSSEPKSSDKTHTCPPCPAPELLGGPSVFLFPPKPKDTLMISRTPEVTCVVVDVSHEDPEVKFNWYVDGVEVHNAKTKPREEQYNSTYRVVSVLTVLHQDWLNGKEYKCKVSNKALPAPIEKTISKAKGQPREPQVYTLPPCREEMTKNQVSLSCAVKGFYPSDIAVEWESNGQPENNYKTTPPVLDSDGSFFLVSKLTVDKSRWQQGNVFSCSVMHEALHNHYTQKSLSLSPGKGGGGSGGGGSDIQMTQSPSSLSASVGDRVTITCQSSESVYSNNQLSWYQQKPGQPPKLLIYDASDLASGVPSRFSGSGSGTDFTLTISSLQPEDFATYYCAGGFSSSSDTAFGCGTKLTVLGGGGGSGGGGSGGGGSGGGGSEVQLVESGGGLVQPGGSLRLSCAASGFSLSSNAMGWVRQAPGKCLEYIGIISVGGFTYYASWAKGRFTISRDNSKNTVYLQMNSLRAEDSATYFCARDRHGGDSSGAFYLWGQGTLVKVSS
chain 2: not shown
notes: anti-PDL1 x CD47 x (hSA dummy domain); also called PRO5052 with dummy domain for LILRB2-BD
B2: PRO1392 (scFv)
scFv: DIQMTQSPSSLSASVGDRVTITCQASQSINDYLAWYQQKPGKAPKLLIYKASTLASGVPSRFSGSGSGTDFTLTISSLQPEDFATYYCQQGYIITDIDNVFGTGTKVTVLGGGGGSGGGGSGGGGSGGGGSQVQLQESGPGLVKPSETLSLTCKASGFSFSSGYDMCWVRQPPGKGLEWIACVVAGSVDITYYASWAKGRVTISKDSSKNQVSLKLSSVTAADTAVYYCARKDAYSDAFNLWGQGTLVTVSS
notes: anti-PDL1 scFv (VL-linker-VH); also called 33-03-G02-sc18
B3: PRO3696 (scFv)
scFv: DVQMTQSPSSLSASVGDRVTITCQASQSIGLNLAWYQQKPGKPPKLLIYAGGYLASGVSSRFSGSGSGTDFTLTISSLQPEDFATYYCQSTYDGSSFVFAFGTGTKVTVLGGGGGSGGGGSGGGGSGGGGSQEQLVESGGGLVQPGGSLRLSCAASGFSFSSSSYMCWVRQAPGKGLEWIACMVTGSSDDTDYASWAKGRFTISKDNSKNTVYLQMNSLRAEDSAVYFCARAGSAPLWGQGTLVKVSS
notes: anti-LILRB2 scFv; also called 69-01-E02-sc06
B4: PRO3744 (scFv)
scFv: DVQMTQSPSSLSASVGDRVTITCQASQSIGSNLAWYQQKPGKPPKLLIYKGGTLESGVPSRFSGSGSGTDFTLTISSLQPEDFATYYCQSTAGSSRSGNYGYVFGCGTKVTVLGGGGGSGGGGSGGGGSGGGGSQQLVESGGGLVQPGGSLRLSCAASGFSFTNNYYMCWVRQAPGKCLEWIACMLVGAWGNTYYASWANGRFTISKDNSKNTVYLQMNSLRAEDSAVYFCARARDYTWTLGGDPETSGFNLWGQGTLVKVSS
notes: anti-LILRB2 scFv; also called 68-18-E11-sc07
B5: PRO4710 (antibody, human IgG4 S228P, kappa, V domains shown)
VH: QQLVESGGGLVQPGGSLRLSCAASGFSFTNNYYMCWVRQAPGKGLEWIACMLVGAWGNTYYASWANGRFTISKDNSKNTVYLQMNSLRAEDTAVYFCARARDYTWTLGGDPETSGFNLWGQGTLVTVSS
VL: DVQMTQSPSSLSASVGDRVTITCQASQSIGSNLAWYQQKPGKPPKLLIYKGGTLESGVPSRFSGSGSGTDFTLTISSLQPEDFATYYCQSTAGSSRSGNYGYVFGQGTKVEIKR
notes: anti-LILRB2 IgG4; also called 68-18-E11-sc07 IgG4; IgG4 variant of scFv PRO3744
B6: PRO1347 (scFv)
scFv: DIQMTQSPASLSASVGDRVTITCQASQSIGTYLAWYQQKPGKPPKLLIYRAFILASGVPSRFSGSGSGTDFTLTISSLQPEDFATYYCQSNFYSDSTTIGPNAFGTGTKVTVLGGGGGSGGGGSGGGGSGGGGSEVQLVESGGGLVQPGGSLRLSCAASGFSFNSDYWIYWVRQAPGKGLEWIACIYGGSSGNTQYASWAQGRFTISRDNSKNTVYLQMNSLRAEDTAVYFCARGYVDYGGATDLWGQGTLVTVSS
notes: anti-PDL1 scFv; also called 37-20-B03-sc09

How the values were obtained:
[1] = biological target: T2, human CD47 on the cell surface (human, UniProt Q08722 19-323); experiment: cell-based or functional assay
[2] = biological target: T3, human PD-L1 on the cell surface (human, UniProt Q9NZQ7 19-290); experiment: cell-based or functional assay
recombinant human PDL1 [3] = biological target: T4, recombinant human PDL1 (human, UniProt Q9NZQ7 19-238, limits assumed); experiment: SPR, antigen immobilised, antibody as analyte
T4 construct: SPR antigen; also called CD274; B7-H1

recombinant human CD47 = recombinant human CD47 (human, UniProt Q08722 19-139, limits assumed); experiment: SPR, antigen immobilised, antibody as analyte
[4] = biological target: T2, human CD47 on the cell surface; experiment: cell-based or functional assay; remark: listed apart in the source
[5] = biological target: T3, human PD-L1 on the cell surface; experiment: cell-based or functional assay; remark: listed apart in the source
[6] = biological target: T3, human PD-L1 on the cell surface; experiment: cell-based or functional assay; remark: listed apart in the source
recombinant human PDL1 [7] = biological target: T4, recombinant human PDL1; experiment: SPR
Fc-tagged human PDL2 = biological target: T1, Fc-tagged human PDL2; experiment: SPR, Fc-tagged human PDL2 captured, scFv as analyte
[8] = biological target: T5, recombinant cynomolgus PDL1 (cynomolgus monkey, UniProt G7PSE7 19-238); experiment: SPR
T5 construct: also called cynom; PDL1

[9] = biological target: T6, human LILRB2 on the cell surface (human, UniProt Q8N423 22-597); experiment: flow cytometry, CHO K1 cells expressing human LILRB2
T6 construct: whole, on cells; also called CHO K1 cells expressing human LILRB2; LILRB2 on HMDMs

[10] = biological target: T6, human LILRB2 on the cell surface; experiment: flow cytometry, CHO cells expressing LILRB2; competitor HLA-G tetramer; reference PRO2518
[11] = biological target: T6, human LILRB2 on the cell surface; experiment: flow cytometry, CHO cells expressing LILRB2; competitor HLA-A0301 dextramer
[12] = biological target: T6, human LILRB2 on the cell surface; experiment: flow cytometry, CHO cells expressing LILRB2; competitor HLA-G tetramer
recombinant human LILRB2 = biological target: T7, recombinant human LILRB2 (human, UniProt Q8N423 22-460, limits assumed); experiment: SPR, LILRB2 immobilised, scFv as analyte
T7 construct: also called ILT4

[13] = biological target: T6, human LILRB2 on the cell surface; experiment: cell-based or functional assay
[14] = biological target: T8, LILRA1 on transiently transfected CHO cells (UniProt O75019 17-489, limits assumed); experiment: CELISA, transiently transfected CHO cells
T8 construct: whole, on cells; V5 tag at the N-terminus

[15] = biological target: T9, LILRB5 on transiently transfected CHO cells (UniProt O75023 24-590, limits assumed); experiment: CELISA, transiently transfected CHO cells
T9 construct: whole, on cells; V5 tag at the N-terminus

[16] = biological target: T10, LILRA2 on transiently transfected CHO cells (UniProt Q8N149 24-483); experiment: CELISA, transiently transfected CHO cells
T10 construct: whole, on cells; V5 tag at the N-terminus

[17] = biological target: T11, LILRB4 on transiently transfected CHO cells (UniProt Q8NHJ6 22-448); experiment: CELISA, transiently transfected CHO cells
T11 construct: whole, on cells; V5 tag at the N-terminus

[18] = biological target: T12, LILRA5 on transiently transfected CHO cells (UniProt A6NI73 42-299); experiment: CELISA, transiently transfected CHO cells
T12 construct: whole, on cells; V5 tag at the N-terminus

[19] = biological target: T13, LILRA6 on transiently transfected CHO cells (UniProt Q6PI73 24-481); experiment: CELISA, transiently transfected CHO cells
T13 construct: whole, on cells; V5 tag at the N-terminus

[20] = biological target: T14, LILRA3 on transiently transfected CHO cells (UniProt Q8N6C8 24-439); experiment: CELISA, transiently transfected CHO cells
T14 construct: whole, on cells; V5 tag at the N-terminus

[21] = biological target: T15, LILRB3 on transiently transfected CHO cells (UniProt O75022 24-631, limits assumed); experiment: CELISA, transiently transfected CHO cells
T15 construct: whole, on cells; V5 tag at the N-terminus

[22] = biological target: T16, LILRA4 on transiently transfected CHO cells (UniProt P59901 24-499); experiment: CELISA, transiently transfected CHO cells
T16 construct: whole, on cells; V5 tag at the N-terminus

[23] = biological target: T17, LILRB1 on transiently transfected CHO cells (UniProt Q8NHL6 24-650); experiment: CELISA, transiently transfected CHO cells
T17 construct: whole, on cells; V5 tag at the N-terminus

[24] = biological target: T6, human LILRB2 on the cell surface; experiment: cell-based or functional assay; remark: listed apart in the source

T7 sequence (Q8N423 22-460 limits assumed): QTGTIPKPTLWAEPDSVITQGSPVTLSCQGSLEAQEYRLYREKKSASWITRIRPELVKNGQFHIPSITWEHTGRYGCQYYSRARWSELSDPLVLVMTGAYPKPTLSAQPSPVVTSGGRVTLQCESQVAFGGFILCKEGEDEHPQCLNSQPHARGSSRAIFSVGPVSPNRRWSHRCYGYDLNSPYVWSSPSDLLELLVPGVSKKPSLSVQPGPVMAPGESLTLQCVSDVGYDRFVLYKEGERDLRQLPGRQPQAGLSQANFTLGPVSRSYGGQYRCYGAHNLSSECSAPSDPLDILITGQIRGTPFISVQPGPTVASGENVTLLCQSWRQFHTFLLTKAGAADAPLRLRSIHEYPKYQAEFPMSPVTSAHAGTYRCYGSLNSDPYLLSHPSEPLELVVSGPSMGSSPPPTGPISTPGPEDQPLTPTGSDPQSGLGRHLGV
T5 sequence (G7PSE7 entry or part of it): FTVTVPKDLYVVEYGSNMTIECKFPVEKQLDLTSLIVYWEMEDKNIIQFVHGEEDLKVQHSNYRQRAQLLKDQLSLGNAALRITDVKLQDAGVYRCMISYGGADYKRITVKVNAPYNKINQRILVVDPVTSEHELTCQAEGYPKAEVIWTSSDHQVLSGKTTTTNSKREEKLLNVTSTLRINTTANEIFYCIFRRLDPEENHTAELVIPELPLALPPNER
T6 sequence (Q8N423 22-597): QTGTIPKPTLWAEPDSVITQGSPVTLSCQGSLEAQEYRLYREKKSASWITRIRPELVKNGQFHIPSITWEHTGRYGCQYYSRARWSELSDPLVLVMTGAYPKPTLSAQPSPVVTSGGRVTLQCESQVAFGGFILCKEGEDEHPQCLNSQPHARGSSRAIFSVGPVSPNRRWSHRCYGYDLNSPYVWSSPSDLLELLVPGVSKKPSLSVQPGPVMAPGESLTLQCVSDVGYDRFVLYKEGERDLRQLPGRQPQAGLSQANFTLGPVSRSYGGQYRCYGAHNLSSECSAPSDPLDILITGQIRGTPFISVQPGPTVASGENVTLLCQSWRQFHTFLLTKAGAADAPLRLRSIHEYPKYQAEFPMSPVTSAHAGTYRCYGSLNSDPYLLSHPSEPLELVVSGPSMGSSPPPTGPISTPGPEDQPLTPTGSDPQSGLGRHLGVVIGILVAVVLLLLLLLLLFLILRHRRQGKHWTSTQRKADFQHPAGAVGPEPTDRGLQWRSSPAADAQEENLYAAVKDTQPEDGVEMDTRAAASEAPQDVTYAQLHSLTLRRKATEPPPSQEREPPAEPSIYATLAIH
T8 sequence (O75019 17-489 limits assumed): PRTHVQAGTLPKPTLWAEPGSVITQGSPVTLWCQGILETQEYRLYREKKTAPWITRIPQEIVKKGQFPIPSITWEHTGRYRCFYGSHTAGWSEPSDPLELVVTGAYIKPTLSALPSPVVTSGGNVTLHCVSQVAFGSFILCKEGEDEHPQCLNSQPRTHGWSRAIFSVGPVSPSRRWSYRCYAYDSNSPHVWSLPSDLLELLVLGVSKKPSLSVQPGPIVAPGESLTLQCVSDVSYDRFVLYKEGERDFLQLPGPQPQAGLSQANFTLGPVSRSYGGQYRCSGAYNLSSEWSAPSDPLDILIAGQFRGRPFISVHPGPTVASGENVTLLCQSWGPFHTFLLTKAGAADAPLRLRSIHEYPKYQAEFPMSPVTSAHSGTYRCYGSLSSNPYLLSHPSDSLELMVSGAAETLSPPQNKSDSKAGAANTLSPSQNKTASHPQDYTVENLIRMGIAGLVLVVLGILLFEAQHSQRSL
T9 sequence (O75023 24-590 limits assumed): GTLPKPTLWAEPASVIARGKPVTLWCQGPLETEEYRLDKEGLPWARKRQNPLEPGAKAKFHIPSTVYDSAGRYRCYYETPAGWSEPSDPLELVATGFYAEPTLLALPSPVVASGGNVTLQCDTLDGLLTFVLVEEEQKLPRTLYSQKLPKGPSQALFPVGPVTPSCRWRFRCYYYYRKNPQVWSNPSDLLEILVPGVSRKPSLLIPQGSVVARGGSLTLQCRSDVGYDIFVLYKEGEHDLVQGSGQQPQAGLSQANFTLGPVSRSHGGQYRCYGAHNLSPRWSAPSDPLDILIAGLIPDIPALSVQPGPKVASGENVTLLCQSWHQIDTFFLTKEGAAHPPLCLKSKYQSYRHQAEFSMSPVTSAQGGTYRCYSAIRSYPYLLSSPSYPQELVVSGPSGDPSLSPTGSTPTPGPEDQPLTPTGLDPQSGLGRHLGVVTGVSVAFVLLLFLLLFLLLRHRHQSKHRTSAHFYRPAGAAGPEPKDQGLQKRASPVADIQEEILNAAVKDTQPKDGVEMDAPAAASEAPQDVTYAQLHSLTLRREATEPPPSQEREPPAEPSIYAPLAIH
T12 sequence (A6NI73 42-299): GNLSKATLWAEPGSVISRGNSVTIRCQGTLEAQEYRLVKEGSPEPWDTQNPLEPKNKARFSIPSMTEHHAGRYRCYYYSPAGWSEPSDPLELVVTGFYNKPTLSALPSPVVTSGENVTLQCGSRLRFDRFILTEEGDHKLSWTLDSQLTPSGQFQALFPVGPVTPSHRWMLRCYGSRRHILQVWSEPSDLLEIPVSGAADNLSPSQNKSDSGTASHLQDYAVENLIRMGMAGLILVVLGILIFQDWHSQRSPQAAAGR
T13 sequence (Q6PI73 24-481): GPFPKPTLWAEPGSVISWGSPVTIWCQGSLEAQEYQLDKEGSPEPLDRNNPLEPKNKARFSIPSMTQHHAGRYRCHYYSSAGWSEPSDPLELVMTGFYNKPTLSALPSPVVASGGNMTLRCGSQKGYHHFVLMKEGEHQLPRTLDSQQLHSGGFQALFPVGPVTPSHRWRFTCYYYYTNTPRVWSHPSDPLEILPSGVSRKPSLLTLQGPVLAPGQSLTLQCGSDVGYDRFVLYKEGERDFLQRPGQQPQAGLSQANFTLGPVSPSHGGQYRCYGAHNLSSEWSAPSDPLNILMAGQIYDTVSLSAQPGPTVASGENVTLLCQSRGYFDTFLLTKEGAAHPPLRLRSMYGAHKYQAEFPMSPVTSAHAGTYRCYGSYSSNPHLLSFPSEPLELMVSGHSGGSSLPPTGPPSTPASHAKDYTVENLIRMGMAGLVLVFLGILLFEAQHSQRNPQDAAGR
T16 sequence (P59901 24-499): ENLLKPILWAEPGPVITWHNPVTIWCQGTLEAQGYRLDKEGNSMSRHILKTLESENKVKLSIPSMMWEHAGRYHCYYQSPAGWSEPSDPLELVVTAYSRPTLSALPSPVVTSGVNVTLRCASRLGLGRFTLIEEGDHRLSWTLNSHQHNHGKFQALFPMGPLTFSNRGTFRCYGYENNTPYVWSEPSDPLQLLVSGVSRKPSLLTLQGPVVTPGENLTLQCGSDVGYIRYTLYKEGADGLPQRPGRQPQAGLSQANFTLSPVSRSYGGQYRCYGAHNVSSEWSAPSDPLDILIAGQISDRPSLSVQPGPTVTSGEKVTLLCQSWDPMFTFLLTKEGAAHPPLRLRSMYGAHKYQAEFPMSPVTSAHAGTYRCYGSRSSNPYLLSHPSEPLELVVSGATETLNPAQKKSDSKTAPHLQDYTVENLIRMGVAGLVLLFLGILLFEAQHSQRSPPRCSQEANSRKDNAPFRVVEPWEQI
T10 sequence (Q8N149 24-483): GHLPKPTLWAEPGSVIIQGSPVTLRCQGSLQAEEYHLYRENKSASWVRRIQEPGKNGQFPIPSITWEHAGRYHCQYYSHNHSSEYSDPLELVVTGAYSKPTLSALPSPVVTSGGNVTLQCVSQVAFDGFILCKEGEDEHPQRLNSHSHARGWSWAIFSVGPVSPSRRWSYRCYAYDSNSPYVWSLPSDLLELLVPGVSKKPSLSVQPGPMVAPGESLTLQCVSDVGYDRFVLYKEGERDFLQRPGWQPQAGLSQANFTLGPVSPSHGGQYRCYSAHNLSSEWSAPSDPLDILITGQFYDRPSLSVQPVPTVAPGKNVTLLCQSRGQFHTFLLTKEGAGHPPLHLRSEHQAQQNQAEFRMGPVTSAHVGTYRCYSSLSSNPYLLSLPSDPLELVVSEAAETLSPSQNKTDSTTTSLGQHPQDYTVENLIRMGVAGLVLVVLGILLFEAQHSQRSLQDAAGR
T17 sequence (Q8NHL6 24-650): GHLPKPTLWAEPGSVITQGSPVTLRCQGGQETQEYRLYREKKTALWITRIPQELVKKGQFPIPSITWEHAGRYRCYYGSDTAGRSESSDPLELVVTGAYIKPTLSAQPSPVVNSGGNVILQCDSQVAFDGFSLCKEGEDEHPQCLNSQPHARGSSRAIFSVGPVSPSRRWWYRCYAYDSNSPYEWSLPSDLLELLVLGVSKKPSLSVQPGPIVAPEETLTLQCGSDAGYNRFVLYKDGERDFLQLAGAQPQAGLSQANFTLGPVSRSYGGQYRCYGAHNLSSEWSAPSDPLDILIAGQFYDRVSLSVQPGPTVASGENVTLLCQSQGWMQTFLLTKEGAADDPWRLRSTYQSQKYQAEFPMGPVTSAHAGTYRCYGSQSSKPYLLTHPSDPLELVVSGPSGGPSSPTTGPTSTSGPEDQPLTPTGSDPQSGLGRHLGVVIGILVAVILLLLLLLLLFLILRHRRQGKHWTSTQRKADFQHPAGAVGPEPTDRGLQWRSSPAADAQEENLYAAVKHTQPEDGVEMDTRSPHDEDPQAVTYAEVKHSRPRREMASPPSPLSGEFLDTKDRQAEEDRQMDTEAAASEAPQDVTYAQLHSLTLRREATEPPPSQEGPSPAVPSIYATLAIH
T14 sequence (Q8N6C8 24-439): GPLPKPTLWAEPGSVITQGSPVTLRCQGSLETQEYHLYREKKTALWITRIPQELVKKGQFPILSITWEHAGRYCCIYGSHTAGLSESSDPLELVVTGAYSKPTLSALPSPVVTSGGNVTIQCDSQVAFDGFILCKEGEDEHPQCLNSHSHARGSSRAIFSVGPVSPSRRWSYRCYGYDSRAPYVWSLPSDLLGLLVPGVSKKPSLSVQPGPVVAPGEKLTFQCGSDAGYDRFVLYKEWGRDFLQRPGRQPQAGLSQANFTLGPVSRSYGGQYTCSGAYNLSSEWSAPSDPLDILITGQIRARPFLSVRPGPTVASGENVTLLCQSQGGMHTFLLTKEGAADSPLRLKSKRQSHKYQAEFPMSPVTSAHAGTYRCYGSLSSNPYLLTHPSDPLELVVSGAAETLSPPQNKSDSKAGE

Binder | PDL1/PD-1 EC50 [nM], NFAT reporter gene assay [6] [nM] | PDL1/PD-1 Max. inhibition (rel. to avelumab) [%] [6] [%] | Kd (recombinant human PDL1 [7]) [nM] | koff (recombinant human PDL1 [7]) [s⁻¹] | kon (recombinant human PDL1 [7]) [M⁻¹ s⁻¹] | binding result (Fc-tagged human PDL2) | Kd [8] [nM] | koff [8] [s⁻¹] | kon [8] [M⁻¹ s⁻¹] | EC50 [9] [nM] | Rel. max. inhibition % (rel. to J-19) [10] [%] | IC50 [11] [nM] | IC50 [12] [nM] | Kd (recombinant human LILRB2) [nM] | koff (recombinant human LILRB2) [s⁻¹] | kon (recombinant human LILRB2) [M⁻¹ s⁻¹] | further results
B1 |  |  |  |  |  |  |  |  |  |  |  |  |  |  |  |  | CD47 driven EC50 [nM], phagocytosis of A375 cells [1]: 27.5 nM; CD47 driven EC50 [nM], phagocytosis of H292 cells [1]: 28.4 nM; PD-L1 driven EC50 [nM], phagocytosis of H292 cells [2]: 0.18 nM; Kd (recombinant human PDL1 [3]): 0.0133 nM; koff (recombinant human PDL1 [3]): 2.72e-05 s⁻¹; kon (recombinant human PDL1 [3]): 2.05e+06 M⁻¹ s⁻¹; Kd (recombinant human CD47): 49.7 nM; koff (recombinant human CD47): 0.0265 s⁻¹; kon (recombinant human CD47): 533000 M⁻¹ s⁻¹; CD47 driven EC50 [nM], phagocytosis of H292 cells [4]: 28.2 nM; PD-L1 driven EC50 [nM], phagocytosis of H292 cells [5]: 0.19 nM
B2 | 0.97 | 104 | 0.0086 | 4.8e-05 | 5.6e+06 | no binding (tested: 180 nM) | 0.0065 | 3.4e-05 | 5.2e+06 |  |  |  |  |  |  |  | 
B3 |  |  |  |  |  |  |  |  |  | 0.796 | 98.4 | 0.867 | 1.08 | 0.226 | 0.000166 | 736000 | 
B4 |  |  |  |  |  |  |  |  |  | 0.881 | 99.1 | 0.893 | 0.973 | 0.148 | 0.000114 | 771000 | 
B5 |  |  |  |  |  |  |  |  |  |  |  |  |  |  |  |  | CD86 EC50 [nM], re-polarization of M2 macrophages [13]: 0.119 nM; CD163 EC50 [nM], re-polarization of M2 macrophages [13]: 0.072 nM; CD206 EC50 [nM], re-polarization of M2 macrophages [13]: 0.203 nM; binding result [14]: no binding (tested: up to 100 nM); binding result [15]: no binding (tested: up to 100 nM); binding result [16]: no binding (tested: up to 100 nM); binding result [17]: no binding (tested: up to 100 nM); binding result [18]: no binding (tested: up to 100 nM); binding result [19]: no binding (tested: up to 100 nM); binding result [20]: no binding (tested: up to 100 nM); binding result [21]: no binding (tested: up to 100 nM); binding result [22]: no binding (tested: up to 100 nM); binding result [23]: no binding (tested: up to 100 nM); IL-1β EC50 [nM], LPS-driven cytokine secretion [24]: 0.248 nM; IL-6 EC50 [nM], LPS-driven cytokine secretion [24]: 0.153 nM; TNF-α EC50 [nM], LPS-driven cytokine secretion [24]: 0.169 nM
B6 | 0.28 | 100 | 0.0109 | 6.64e-05 | 7.38e+06 | no binding (tested: 180 nM) | 0.0127 | 8.77e-05 | 6.88e+06 |  |  |  |  |  |  |  | 
